Key:
Type in all cases: cell-based
[1] = biological target: T1, huIL-27 (Homo sapiens, UniProt Q14213+Q8NEV9); test: Phospho-STAT3 (BIO-PLEX) neutralization of IL-27 by soluble receptors, mouse spleens; details: ligand huIL-27 at EC90 (2 nM)
T1 construct: purchased R&D Systems
T1 sequence (Q8NEV9 29-243): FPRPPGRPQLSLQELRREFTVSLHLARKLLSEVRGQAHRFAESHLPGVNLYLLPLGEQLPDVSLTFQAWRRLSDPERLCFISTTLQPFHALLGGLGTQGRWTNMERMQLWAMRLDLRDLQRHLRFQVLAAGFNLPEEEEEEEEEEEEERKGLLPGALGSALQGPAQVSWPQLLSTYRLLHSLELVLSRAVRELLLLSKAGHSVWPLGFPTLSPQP
T1 sequence (Q14213 21-229): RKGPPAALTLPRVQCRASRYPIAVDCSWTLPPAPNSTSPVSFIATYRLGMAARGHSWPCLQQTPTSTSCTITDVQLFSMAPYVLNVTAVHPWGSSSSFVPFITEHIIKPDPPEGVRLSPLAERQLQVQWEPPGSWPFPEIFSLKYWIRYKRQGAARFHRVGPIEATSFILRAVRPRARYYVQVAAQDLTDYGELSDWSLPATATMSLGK
Text: (§1) Whole mouse spleens were harvested from C57 B1/6 mice and washed two times with 1×PBS before being plated out at 2×10^5 cells/well in assay media (RPMI 1640 plus 10% fetal bovine serum) in 96-well, round-bottom tissue culture plates. Total human PBMC (peripheral blood mononuclear cells) were thawed from a frozen vial collected from a leukapherisis donation and washed two times with 1×PBS before being plated out at 10^6 cells/well in assay media in 96-well, round-bottom tissue culture plates. […] Following pre-incubation, treatments were added to the plates containing the cells and incubated together at 37° C. for 15 minutes.
(§2) Following incubation, cells were washed with ice-cold wash buffer (BIO-PLEX Cell Lysis Kit, BIO-RAD Laboratories, Hercules, Calif.) and put on ice to stop the reaction according to manufacturer's instructions. […]
(§3) Capture beads (BIO-PLEX Phospho-Stat3 Assay, BIO-RAD Laboratories) were combined with 50 μL of 1:1 diluted lysates and added to a 96-well filter plate according to manufacture's instructions (BIO-PLEX Phosphoprotein Detection Kit, BIO-RAD Laboratories). […] After the final wash, beads were resuspended in 125 μL/well of bead suspension buffer, shaken for 30 seconds, and read on an array reader (BIO-PLEX, BIO-RAD Laboratories) according to the manufacture's instructions. Data were analyzed using analytical software (BIO-PLEX MANAGER 3.0, BIO-RAD Laboratories). […]

[2] = biological target: T2, muIL-27 (Mus musculus, UniProt O35228+Q8K3I6); test: as above; details: ligand muIL-27 at EC90 (0.2 nM)
T2 construct: purchased R&D Systems
T2 sequence (Q8K3I6 29-234): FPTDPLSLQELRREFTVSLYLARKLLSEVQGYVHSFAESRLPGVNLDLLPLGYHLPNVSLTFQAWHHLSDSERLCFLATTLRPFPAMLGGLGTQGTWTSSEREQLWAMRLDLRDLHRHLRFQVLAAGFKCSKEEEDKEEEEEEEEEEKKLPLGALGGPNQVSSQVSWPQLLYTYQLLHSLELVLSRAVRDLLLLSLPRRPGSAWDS
T2 sequence (O35228 19-228): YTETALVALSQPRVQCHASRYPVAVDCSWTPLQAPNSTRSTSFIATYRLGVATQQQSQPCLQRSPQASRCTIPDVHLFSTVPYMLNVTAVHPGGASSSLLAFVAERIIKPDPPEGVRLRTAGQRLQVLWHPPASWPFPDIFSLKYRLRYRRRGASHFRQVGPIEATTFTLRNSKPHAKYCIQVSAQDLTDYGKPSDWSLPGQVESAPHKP
Text: as §1, §2, §3

[3] = biological target: T1, huIL-27; test: Phospho-STAT3 (BIO-PLEX) neutralization of IL-27 by soluble receptors, total human PBMCs; details: ligand huIL-27 at EC90 (2 nM)
Text: as §1, §2, §3

[4] = biological target: T2, muIL-27; test: as above; details: ligand muIL-27 at EC90 (2 nM)
Text: as §1, §2, §3

IC50 [1]: 0.32 nM | IC50 [2]: 0.14 nM | IC50 [3]: 0.95 nM | IC50 [4]: 2.97 nM
Substance: human IL-27RA-Fc5: Extracellular domain of human IL27RA (amino acids 1 to 512 of SEQ ID NO:3) fused to Fc5, effector minus human gamma1 Fc; SEQ ID NO:16
